Values quoted from earlier work, collected in article doi:10.64898/2025.12.23.696170.

Experiments:
ATR2 (Homo sapiens) = ATR2 (Homo sapiens) (UniProt P50052)
ATR1 (Homo sapiens) = ATR1 (Homo sapiens) (UniProt P30556)
Sequence of UniProt P30556 (P30556 whole entry): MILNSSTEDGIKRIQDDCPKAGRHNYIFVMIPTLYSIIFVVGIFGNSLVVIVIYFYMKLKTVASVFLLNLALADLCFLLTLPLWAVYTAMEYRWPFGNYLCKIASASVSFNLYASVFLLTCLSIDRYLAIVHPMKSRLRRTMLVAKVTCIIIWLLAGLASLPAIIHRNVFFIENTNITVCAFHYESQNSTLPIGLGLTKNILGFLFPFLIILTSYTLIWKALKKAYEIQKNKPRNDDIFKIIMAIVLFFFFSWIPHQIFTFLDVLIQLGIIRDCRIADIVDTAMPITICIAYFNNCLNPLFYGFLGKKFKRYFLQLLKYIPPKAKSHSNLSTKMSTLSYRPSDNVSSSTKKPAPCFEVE

Sequence of UniProt P50052 (P50052 whole entry): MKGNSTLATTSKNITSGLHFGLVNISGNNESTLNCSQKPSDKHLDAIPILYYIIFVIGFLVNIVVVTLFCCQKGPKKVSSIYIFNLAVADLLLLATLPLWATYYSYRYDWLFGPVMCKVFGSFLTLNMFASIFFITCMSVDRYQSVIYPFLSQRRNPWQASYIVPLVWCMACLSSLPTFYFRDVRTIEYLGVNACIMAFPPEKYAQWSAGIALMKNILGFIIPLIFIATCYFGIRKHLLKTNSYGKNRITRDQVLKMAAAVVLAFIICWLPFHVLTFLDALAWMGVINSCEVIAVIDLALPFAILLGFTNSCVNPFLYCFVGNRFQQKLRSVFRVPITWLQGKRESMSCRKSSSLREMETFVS

Ki (ATR2 (Homo sapiens)): 0.3 nM | Ki (ATR1 (Homo sapiens)): 0.2 nM
Substance: Angiotensin II (from UniProt P01019)
